Results from PMC9523049.

Target: Mec1-Ddc2 heterodimer (yeast (endogenous in cultured yeast cells)) (UniProt P38111)
Assay: cryo-EM structure; Mec1-Ddc2 complex endogenously purified from yeast cells treated with HU (HU-Dimer1, HU-Dimer2) or MMS (MMS-Dimer)

- stoichiometry N: 2
Substance: Mec1-Ddc2 heterodimer, P38111 1-2368; Q04377 1-747
